For one test, the target named is T1, mouse EpCAM (mouse, UniProt Q99JW5 24-315).
T1 construct: whole, on cells; also called EpCAM on the mouse fibroblast cell line PA6
T1 sequence (looked up): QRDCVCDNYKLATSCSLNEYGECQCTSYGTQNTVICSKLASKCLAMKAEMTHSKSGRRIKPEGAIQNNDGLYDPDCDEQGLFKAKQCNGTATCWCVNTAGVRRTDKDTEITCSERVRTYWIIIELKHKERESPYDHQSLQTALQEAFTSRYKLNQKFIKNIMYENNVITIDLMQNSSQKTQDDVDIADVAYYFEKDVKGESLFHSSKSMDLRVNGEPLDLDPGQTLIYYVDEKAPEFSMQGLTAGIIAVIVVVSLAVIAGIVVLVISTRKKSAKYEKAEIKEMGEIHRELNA
Briefly: living cell immunostaining of KMC07 co-cultured with mouse PA6 cells. The text has this:
Since it was considered that EpCAM was so specially modified with KMC07 that its expression pattern was changed, expression of EpCAM was confirmed using alive or fixed Triton X-100-treated KMC07 by immunostaining. At this time, the anti-KMC07 antibody 1F9D4 and a commercially available EpCAM antibody were used as primary antibodies. When KMC07 was immunostained as living cells, signals were obtained on the cell membrane of KMC07 and the cell membrane of PA6 with the anti-EpCAM antibody (indicated by the arrow in FIG. 12). The staining pattern of KMC07 was similar to that with 1F9D4. Since the anti-EpCAM antibody is known to cross human, mouse and rat EpCAMs, it is considered that the anti-EpCAM antibody also reacted to the mouse fibroblast cell line PA6.

For test [1], the target named is T2, EpCAM (epithelial cell adhesion molecule) (human, UniProt P16422 24-314).
T2 construct: whole, on cells; also called human EpCAM
T2 sequence (looked up): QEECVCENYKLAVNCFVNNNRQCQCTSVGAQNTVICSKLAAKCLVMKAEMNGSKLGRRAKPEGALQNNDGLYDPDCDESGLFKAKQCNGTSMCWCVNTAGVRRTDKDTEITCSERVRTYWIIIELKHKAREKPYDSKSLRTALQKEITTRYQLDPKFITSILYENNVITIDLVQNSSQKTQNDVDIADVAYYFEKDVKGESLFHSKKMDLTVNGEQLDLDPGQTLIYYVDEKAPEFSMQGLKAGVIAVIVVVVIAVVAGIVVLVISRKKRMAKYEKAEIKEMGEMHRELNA
Nature of the test: antibody affinity column on KMC07 whole cell extract, silver staining, mass analysis of the eluted band. The text has this:
To an affinity column, 5 clones of the anti-KMC07 antibody were bound and the KMC07 whole cell extract was flown to react the antibody with the antigen. Thereafter, the antibody was eluted and evaluated by silver staining. […] Among them, the broad band of 75 to 100 kDa (mark 4 in the figure) detected with 1B4G4 was similar to that in FIG. 10, and thus considered to be promising as a candidate antigen.

B1: 1F9D4 (antibody III) (antibody, IgG2b, V domains shown)
VH: EVQLVESGGGLVQPGRSLKLSCAASGFTFSDYNMAWVRQAPKKGLEWVATINYDGISTYYRDSVKGRFTISRDNAKSTLYLQMDSLRSEDTATYYCARHSYVYYALGVPFAYWGQGTLVTVSS
VL: DIQMTQSPSLLSASVGDRVTINCKASQNINKYLNWYQQKLGEAPKLLIYNTNSLQTGIPSRFSGSGSGTDYTLTISSLQPEDFGTYFCFQHNSWPLTFGSGTKLEIK
notes: also called IF9D4; anti-KMC07 antibody 1F9D4
For B1, the binding result is on record as “no binding” in the test with mouse EpCAM and “binds” in test [1].
